Measurements: publication PMC5057102, “Fabrication of an antibody-aptamer sandwich assay for electrochemical evaluation of levels of β-amyloid oligomers”

Experiments:
[1] = target: Amyloid beta 1-42 oligomers (UniProt P05067 672-713); assay: electrochemical antibody-aptamer sandwich (DPV); 20 nM, antibody capture; 0.1 M phosphate buffer (Na2HPO4/NaH2PO4) pH 7.4; incubations at 37 C (Abeta 60 min, aptamer-Au-Th 3 h); 1% BSA block; details: label: gold nanoparticle, thionine
[2] = target: Amyloid beta 1-40 oligomers (UniProt P05067 672-711); assay: electrochemical antibody-aptamer sandwich (DPV); 20 nM, antibody capture; response similar to 1-42 oligomers; 0.1 M phosphate buffer (Na2HPO4/NaH2PO4) pH 7.4; incubations at 37 C (Abeta 60 min, aptamer-Au-Th 3 h); 1% BSA block; details: label: gold nanoparticle, thionine
Sequence of Amyloid beta 1-40 oligomers (P05067 672-711): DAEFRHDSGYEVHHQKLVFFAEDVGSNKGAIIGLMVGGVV

Sequence of Amyloid beta 1-42 oligomers (P05067 672-713): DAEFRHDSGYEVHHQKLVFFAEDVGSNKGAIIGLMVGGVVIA

B1: Abeta oligomer aptamer (thiolated, on AuNP with thionine) (ssDNA)
DNA: GCCTGTGTTGGGGCGGGTGCG
modifications: 5'-HS (thiol)
- binding result [1]: binds
- binding result [2]: binds
